To fix the notation:
T1: β-catenin (on the human protein microarray) (human, UniProt P35222 1-781)
T1 sequence (looked up): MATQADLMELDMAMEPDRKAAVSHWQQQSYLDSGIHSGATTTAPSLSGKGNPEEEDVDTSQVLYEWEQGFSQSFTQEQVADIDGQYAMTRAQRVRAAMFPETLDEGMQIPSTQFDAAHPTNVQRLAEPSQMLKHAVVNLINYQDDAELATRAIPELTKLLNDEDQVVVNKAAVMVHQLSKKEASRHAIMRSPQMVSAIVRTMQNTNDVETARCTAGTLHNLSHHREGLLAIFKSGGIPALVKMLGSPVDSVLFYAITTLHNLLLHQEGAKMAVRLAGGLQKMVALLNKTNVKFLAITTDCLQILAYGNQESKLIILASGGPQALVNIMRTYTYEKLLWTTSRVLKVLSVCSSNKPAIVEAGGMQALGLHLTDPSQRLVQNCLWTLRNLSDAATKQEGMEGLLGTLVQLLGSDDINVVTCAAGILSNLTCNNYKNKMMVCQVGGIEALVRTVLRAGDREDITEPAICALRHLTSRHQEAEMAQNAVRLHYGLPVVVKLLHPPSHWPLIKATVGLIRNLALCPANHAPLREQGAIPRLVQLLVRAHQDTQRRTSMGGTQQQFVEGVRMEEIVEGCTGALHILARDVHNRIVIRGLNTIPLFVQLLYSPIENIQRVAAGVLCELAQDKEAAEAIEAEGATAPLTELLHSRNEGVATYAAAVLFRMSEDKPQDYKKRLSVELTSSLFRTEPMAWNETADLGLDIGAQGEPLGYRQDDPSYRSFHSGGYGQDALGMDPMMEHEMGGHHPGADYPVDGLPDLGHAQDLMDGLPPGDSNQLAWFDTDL

B1: casein kinase 1 ε (on the human protein microarray) (natural protein, UniProt P49674 1-416, looked up)
chain: MELRVGNKYRLGRKIGSGSFGDIYLGANIASGEEVAIKLECVKTKHPQLHIESKFYKMMQGGVGIPSIKWCGAEGDYNVMVMELLGPSLEDLFNFCSRKFSLKTVLLLADQMISRIEYIHSKNFIHRDVKPDNFLMGLGKKGNLVYIIDFGLAKKYRDARTHQHIPYRENKNLTGTARYASINTHLGIEQSRRDDLESLGYVLMYFNLGSLPWQGLKAATKRQKYERISEKKMSTPIEVLCKGYPSEFSTYLNFCRSLRFDDKPDYSYLRQLFRNLFHRQGFSYDYVFDWNMLKFGAARNPEDVDRERREHEREERMGQLRGSATRALPPGPPTGATANRLRSAAEPVASTPASRIQPAGNTSPRAISRVDRERKVSMRLHRGAPANVSSSDLTGRQEVSRIPASQTSVPFDHLGK
B2: Flag (N-terminus)- and V5 (C-terminus)-tagged recombinant human Lmbr1l protein (natural protein, UniProt Q6UX01 1-489, looked up)
chain: MEAPDYEVLSVREQLFHERIRECIISTLLFATLYILCHIFLTRFKKPAEFTTVDDEDATVNKIALELCTFTLAIALGAVLLLPFSIISNEVLLSLPRNYYIQWLNGSLIHGLWNLVFLFSNLSLIFLMPFAYFFTESEGFAGSRKGVLGRVYETVVMLMLLTLLVLGMVWVASAIVDKNKANRESLYDFWEYYLPYLYSCISFLGVLLLLVCTPLGLARMFSVTGKLLVKPRLLEDLEEQLYCSAFEEAALTRRICNPTSCWLPLDMELLHRQVLALQTQRVLLEKRRKASAWQRNLGYPLAMLCLLVLTGLSVLIVAIHILELLIDEAAMPRGMQGTSLGQVSFSKLGSFGAVIQVVLIFYLMVSSVVGFYSSPLFRSLRPRWHDTAMTQIIGNCVCLLVLSSALPVFSRTLGLTRFDLLGDFGRFNWLGNFYIVFLYNAAFAGLTTLCLVKTFTAAVRAELIRAFGLDRLPLPVSGFPQASRKTQHQ

Assay [1] has as its target B2. In words: peptide or protein array.
The target in assay [2] is T1, β-catenin (on the human protein …). In words: peptide or protein array.

Consider B1, for which, in assay [1], the binding result is listed as “binds”.
For B2, the binding result in assay [2] was “binds”.

The record behind these values is PMC7206793 (Science (New York, N.Y.), 2019).
